In patent US20040180409:

System: T1, epitope-tagged (V5) full-length murine TLT-1 (TREM-like transcript-1) expressed in HEK293T cells
T1 sequence: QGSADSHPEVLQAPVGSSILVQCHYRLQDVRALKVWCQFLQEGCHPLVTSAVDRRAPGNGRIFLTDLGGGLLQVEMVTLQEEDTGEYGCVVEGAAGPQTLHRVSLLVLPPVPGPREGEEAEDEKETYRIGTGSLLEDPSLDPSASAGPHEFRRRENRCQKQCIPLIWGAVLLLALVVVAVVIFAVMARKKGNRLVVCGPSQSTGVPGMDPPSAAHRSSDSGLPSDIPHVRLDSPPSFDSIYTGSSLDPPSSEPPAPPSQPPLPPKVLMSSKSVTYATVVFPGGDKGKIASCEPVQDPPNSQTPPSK

Syk
tyrosine phosphorylation of TLT-1 (anti-V5 immunoprecipitation, antiphosphotyrosine immunoblot): TLT-1 is phosphorylated by Src but not Syk
